Drawing on a protein production outcome set (Wang et al. 2014), this text covers protein production for 20 sequences.
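Also: failed if final PepcDB status was selected cloned or expressed and not failed if soluble or beyond.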

A short description of this series: label from the status in PepcDB records.
With “MSLDPAHTPDPAHPHDQEAAHAEDPARAIGSARLLDVDPLLDDPGTRIVVCCGSGGVGKTTTAAALGLRAAERGRKVVVLTIDPARRLAQSMGIDSLDNIPRRVKGIDDSASGELHAMMLDMKRTFDEIVEAHADRERAAAILSNPFYQSLSAGFAGTQEYMAMEKLGQLRARDEWDLIIVDTPPSRSALDFLDAPKRLGSFLDGKLIRLLTAPAKLGGRAGMKFLNVGMSMMTGTLGKLLGGQLLKDVQTFVAAMDTTFGGFRTRADATYKLLQAPGTAFLVVAAPERDALREAAYFVERLAAEDMPLAGLVLNRVHGSGAAQLSAERALAAAENLDLAADPGSTENLEESRIVDQEGGKAGLRNSPDTYGSSESPADLTPADQTPASSEGSPATDGAVEQLTAGLLILHAERMQLLSREQRTRDRFAALHPEVAVAEVAALPGDVHDLTGLRDIGDRLAANRPELPTSPGGALEHHHHHH”, the protein production entry is recorded as “not failed”.
In the case of “MSLDSKTAPAFSLPDLHGKTVSNADLQGKVTLINFWFPSCPGCVSEMPKIIKTANDYKNKNFQVLAVAQPIDPIESVRQYVKDYGLPFTVMYDADKAVGQAFGTQVYPTSVLIGKKGEILKTYVGEPDFGKLYQEIDTAWRNSDAEGHHHHHH” it was “not failed”; in that of “MSLDVLTNFAQIQSFTALAIGIMIGLAALGAGLGLAIMAGKFLESAARQPELIPLLQVRMFIAAGLIDAAFIISVAVGLLLAFANPLSSTLLVAVSKALAG”, “failed”; in that of “MSLDVYVNFPADGHVREIAKTVLDGFDLHWYPDYYDAEAQVIKDRYVLGKRTKMIQAISAGVDHIDVNGIPENVVLCSNAGAYSISVAEHAFALLLAHAKNILENNELMKAGIFRQSPTTLLYGKALGILGYGGIGRRVAHLAKAFGMRVIAYTRSSVDQNVDVISESPADLFRQSDFVLIAIPLTDKTRGMVNSRLLANARKNLTIVNVARADVVSKPDMIGFLKERSDVWYLSDVWWNEPEITETNLRNAILSPHVAGGMSGEIMDIAIQLAFENVRNFFEGEGHHHHHH”, “not failed”.
In the case of “MSLEARVLTGAALEARLDEVARLRIAVFRDWPYLYEGSMDYERSYLSTYRTSPGAILVGAFDGDRLVGASTGTPMEDHAEDFAAAFARTGLPLDEIFYCAESVLLPDYRGHGMGHRFFDLREAHARALGRRHSAFCSVIRPEDHPLRPAAARSNEPFWRKRGYAPLPGVVAHYGWTDVGEERETQKPLQFWIRDL” it was “not failed”; in that of “MSLEGLSINFATVRQGGNFGAIVDACLAHGITAISPWREQVHGVGLAEAARIVEQNGLRLSGHCRGGFFPAIDADGRRRAIEDNKRAVDEAAAMKADCLVLVVGGLPAGSRDLKGARQMVEDGMAKLLPYARAAGVPLAIEPLHPFYAAERACFNTLKQSLDLCDRLGAGTGVAIDVYHVWWDPELEEQVARAGRNGQILAHHICDWLVPTTDPLNDRGMMGDGVIDLKAFRAMIEAAGFHGPQEVEIFSHRWQARPMDEVLATVVERFKTVC”, “failed”; in that of “MSLEIIKTGLAAFGMSGQVFHAPFISTNPHFELYKIVERSKELSKERYPQASIVRSFKELTEDPEIDLIVVNTPDNTHYEYAGMALEAGKNVVVEKPFTSTTKQGEELIALAKKKGLMLSVYQNRRWDADFLTVRDILAKSLLGRLVEYESTFARYRNFIKPNTWKETGESGGGLTYNLGSHLIDQAIQLFGMPEAVFADLGILREGGKVDDYFIIHLLHPSLAPNVKITLKASYLMREAEPRFALHGTLGSYVKYGVDKQEAALLAGEIPERPNWGEESEQEWGLLHTEINGKEICRKYPGIAGNYGGFYQNIYEHLCLGQPLETHAQDILNVIRIIEAAYQSHRENKIVNLKEGHHHHHH”, “not failed”.
With “MSLEKPYIISVYALIRNEKGEFLLLRRSENSRTNAGKWDLPGGKVNPDESLKEGVAREVWEETGITMVPGDIAGQVNFELTEKKVIAIVFDGGYVVADVKLSYEHIEYSWVSLEKILGMETLPAYFRDFFERFDRENKKPSKLFIEGHHHHHH” the entry was “not failed”.
Consider “MSLELGQAMVTVAGIGCRKGAASDAIIAAVRAAERAFGVTVDYLATAPLKADEAGLAEAAKGLSLSLEIVAQERLEAVAAETMTFSQASLDHSGSPSVSEAAALAAAGAGARLVAPRLVVGDVTVAIAMTSDAPHGSRSAIEYGEQEEGHHHHHH”, for which the protein production entry is “not failed”.
For “MSLEPLDVDAEGVAAATKARGFRPKHLVTGPSRDDKSFLGHPGGLPWMLQVEMWERFSWYGMRAILVYFITDTLAHGGLGLPINAGQVVMASYGAAVLLMTIPGGIFADRILGPWMSTLCGGLIIMTGHVILAIPQVVTSWIGLICIAIGTGFIKPNLSTVVGGLYDDGDPRRDQGFLYFYMSINIGSLFAPIVTGLLKDHYGYHVGFIAAAIGMALGLIAFFHGRSKLREFAFDIPNPLAPGEGRRMVLRALGIAVVGAVLAIGFKALLGEWTSAIAYALFAFASVTALSYFLTMFRSPKVSDRERGHLWAFVPLWVGQVLFTMIFEQAAGKMPTFAKDNTDGHIVGSWSVEPEQYQTINPAAVLILAGLLGMWFRRREGKFPNTPQKFAISVFIIGITALIMGFGFRSWPGGNRLAPWWFLAVVFVIQTVAELFMNPIGLSTATKLAPKKFASQNMTLWLLASACGQGLASVTIERTKNLGDVVFYYSLGIVTILVAVVLFVIAPWTQAKMKDVDSVAEEGDA”, the protein production entry is listed as “failed”.
With “MSLESLFQHIIFTEHQAEESRRLMREVRSEITRCREKIKKATEELNEEKIKLESKVQQFFEKSFFLQLLKAHENALEKQYSEITNHRNMLLQTFEAIKKQMIEEEDKFIKEITDFNNDYEITKKRELLMKENVKIEISDLENQANMLKSEMKSMEHDSSQLNELQKQKSELIQELFTLQRKLKVFEDEENESICTTKYLEAEKIKISEKPQNDTECLRLKKELELYKEDDMESVYEALQTEIEFLELTLAQKDLQESK” the entry was “failed”.
With “MSLFRSRPNALSQRSVIASSSELASLAGRDILKRGGNIFDAALAVSAMLCVTQNNLCGLGGDLFALIRDENGQIMDLNGSGQASRAVSIDYYESMGLTKIPERGPYAAITVPGIAGSWDEIFRKFATMDIADILEPAIRTASAGFPITQNYSDSIARSAPVIGQYRGWSSIFMPNGSVPVAGEILKQPDLAESFRLMSEEGFRSFYDGSLADIIIAGLEGTGSPLSDRDLRVYRPLIGKPVFTDLDEFRIYETSPNSQGITVIEWIRGMESHGYDSRTMWEAKIEDIFETMEEAYDKRRKITDPSYMNIAQHDSANGKKDGLPKRDHNDIGDTTYFSISDSEGRSVSIIQSNYMGFGSGIVPKGTGFVLQNRGSYFTLQRDHPNALMPGKRTFHTLAACMVEKEHDLYASLGSMGGDIQPQVQMQILMEILKDNTDPQAILDKPRWTEPYTIYEAPGAVYVESEELYRNVSKQISGRKVVLRDVSQEFGTAQITTLIRGDVVVGAADPRGDGIAIPYSEGHHHHHH” the entry was “not failed”.
For “MSLIENLWRGICIISASEDAFSAGETIKEKLKSFEIPVVHYRYKDAEIETIWKCYDAIVFVMALEGATRIVCKYAKSKTEDPAIVCIDDKINYVIPLLGGHWGANDIARELSVILNSTPIITTAAEIKGKLSIERIANILIAKIINPENIVKINAALLRDESICIDGIDVNVNFPENIKVNSEECSYIISLRGDKEYKDKIVVWLKPLKISIGIGSKKDVKMEEIRDGIYKVLERLNLKRERIGIIASIREEVKKIADEFNVRFRLVNEEEINNFMNPCLTPPSKTLIEVGLKGVAEISALIAGGRNSKLILRKIAISRNSTIAVATYEGHHHHHH”, the protein production entry is reported as “not failed”.
In the case of “MSLKIDAVDLFYLSMPEVTDAADGSQDALLVRVAAGGHIGWGECEAAPLPSIAAFVCPKSHGVCRPVSDSVLGQRLDGPDDIARIAALVGYNSMDLLQAPHMLSGIEMALWDLLGRRLSAPAWALLGYSASHGKRPYASLLFGDTPQETLERARAARRDGFAAVKFGWGPIGRGTVAADADQIMAAREGLGPDGDLMVDVGQIFGEDVEAAAARLPTLDAAGVLWLEEPFDAGALAAHAALAGRGARVRIAGGEAAHNFHMAQHLMDYGRIGFIQIDCGRIGGLGPAKRVADAAQARGITYVNHTFTSHLALSASLQPFAGLEADRICEYPAAPQQLALDITGDHIRPDAEGLIRAPEAPGLGLQVAASALRRYLVETEIRIGGQLIYRTPQLEGHHHHHH” it was “not failed”; in that of “MSLKIGIIGGGSVGLLCAYYLSLYHDVTVVTRRQEQAAAIQSEGIRLYKGGEEFRADCSADTSINSDFDLLVVTVKQHQLQSVFSSLERIGKTNILFLQNGMGHIHDLKDWHVGHSIYVGIVEHGAVRKSDTAVDHTGLGAIKWSAFDDAEPDRLNILFQHNHSDFPIYYETDWYRLLTGKLIVNACINPLTALLQVKNGELLTTPAYLAFMKLVFQEACRILKLENEEKAWERVQAVCGQTKENRSSMLVDVIGGRQTEADAIIGYLLKEASLQGLDAVHLEFLYGSIKALERNTNKVEGHHHHHH”, “not failed”; in that of “MSLKIRDAYTIVTCPGRNFVTLKIVTESGTHGIGDATLNGREMAVAAYLDEHVVPALIGRDAGRIEDTWQYLYRGAYWRRGPVTMTAIAAVDMALWDIKAKAAGMPLYQLLGGKSRERVMTYAHCTGQTIEDCLGEVARHVELGYRAVRVQSGVPGIETTYGVAKTPGERYEPADSSLPAEHVWSTEKYLNHAPKLFAAVRERFGDDLHVLHDVHHRLTPIEAARLGKAVEPYHLFWLEDCVPAENQESLRLIREHTTTPLAIGEVFNSIHDCRELIQNQWIDYIRMPLTHGGGITAMRRVADLASLYHVRTGFHGPTDLSPVCLGAAIHFDTWVPNFGIQEHMPHTDETDAVFPHDYRFEDGHFLAGESPGHGVDIDEELAAKYPYERASLPVNRLEDGTLWHWEGHHHHHH”, “not failed”.
In the case of “MSLKITGVNIYLLKSGRLHPVLVEISTDEGITGAGEAGIAYGVGGTAAAGMIKDLSERFLIGKDPSRIEELWSTMYDHSFWAKNGGAIIFAGISAIEQALWDIKGKCLGVPVYELFGGKIRDRVRAYANGWYGAADTPDEFARAVERPLKEGYGALKFYPLAQRVGSALQHVTRRSMSAEAIELAYRRVKAVRDAAGPEIELMVDLSGGLTTDETIRFCRKIGELDICFVEEPCDPFDNGALKVISEQIPLPIAVGERVYTRFGFRKIFELQACGIIQPDIGTAGGLMETKKICAMAEAYNMRVAPHVCGSSLIETATLQLEANITNFMIHEHYPAFKADDGYVEVLENPPSISSGYFEMPNGPGLGAVLIKRNIEPYLWASCTEGHHHHHH” it was “not failed”.
With “MSLKKTILCFGEALIDMLAQPLVKKGMPRAFLQCAGGAPANVAVAVARLGGAVQFVGMLGSDMFGDFLFDSFAEAGVVTDGIVRTSTAKTALAFVALDAHGERSFSFYRPPAADLLFRVEHFQDASFSDALIFHACSNSMTDADIAEVTFEGMRRAQAAGAIVSFDLNFRPMLWPNGENPASRLWKGLSLADVVKLSSEELDYLANTLAADANAVIQQLWQGRAQLLLVTDAAGPVHWYTRTAGGEVPTFRVQVQDSNAAGDAFVGGMLYTFAQQFDDAAALIDFCHDPESIVSTLRFAAAVGALAVTRQGAFTAMPMLSEVLSLIQEQSEGHHHHHH” the entry was “not failed”.
For “MSLKLYGFSVSNYYNMVKLALLEKGLTFEEVTFYGGQAPQALEVSPRGKVPVLETEHGFLSETSVILDYIEQTQGGKALLPADPFGQAKVRELLKEIELYIELPARTCYAESFFGMSVEPLIKEKARADLLAGFATLKRNGRFAPYVAGEQLTLADLMFCFSVDLANAVGKKVLNIDFLADFPQAKALLQLMGENPHMPRILADKEASMPAFMEMIRSGKREGHHHHHH”, the protein production entry was “not failed”.
For the sequence “MSLKTLNIYLMRHGKVDAAPGLHGQTDLKVKEAEQQRIAMAWKTKGYDVAGIISSPLSRCHDLAQILAEQQLLPMTTEDDLQEMDFGDFDGMPFDLLTEHWKKLDAFWQSPAHHSLPNAESLSTFSQRVSRAWSQIINDINDNLLIVTHGGVIRIILAHVLGVDWRNPQWYSTLAIGNASVTHITITIDDQIYASVRSIGVPLVEEGHHHHHH”, the protein production entry was “not failed”.
